{"source": "patent US20090252741A1", "binders": {"B1": {"name": "anti-human CTLA-4 mAb clone L3D10 (antibody, from another filing, V domains shown)", "VH": "QVQLKESGPGLVAPSQSLSITCTVSGFSLTSYGLSWVRQPPGKGLEWLGVIWYDGNTNFHSALISRLTISKDNSKSQVFLELNSLQTDDTATYYCAKTEGHYYGSNYGYYALDYWGQGTSVTVSS", "VL": "DIQMTQSPASLSVSVGETVTITCRASENIYSNLAWYQQKQGKSPQLLVYAATNLADGVPSRFSGSGSGTQYSLKINSLQSEDFGTYFCQHLWGTPYTFGGGTKLEIKR"}}, "target": "human CTLA-4Ig fusion protein (extracellular domain of human CTLA-4 and the Fc fragment of human IgG1) (human) (UniProt P16410)", "sequence (P16410 36-161)": "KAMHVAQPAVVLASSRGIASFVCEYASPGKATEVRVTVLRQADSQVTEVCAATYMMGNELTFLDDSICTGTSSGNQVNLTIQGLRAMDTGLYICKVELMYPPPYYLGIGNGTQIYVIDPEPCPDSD", "experiment": "Biacore SPR, huCTLA-4Ig immobilized by amine coupling, mAb injected, 25 C", "data": [{"binder": "B1", "values": [{"measurement": "Kd", "value": 3.06, "unit": "nM"}, {"measurement": "koff", "value": 0.000633, "unit": "s⁻¹"}, {"measurement": "kon", "value": 207000, "unit": "M⁻¹ s⁻¹"}]}]}
